Data from a protein production outcome set (Wang et al. 2014).

Test: label from the status in PepcDB records
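Note: failed if final PepcDB status was selected cloned or expressed and not failed if soluble or beyond.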

## MEKENDENITKKLSLKKVLFNSLFVSLSILVLGFVINYKYAVGYIFILVIHELGHYIIAKFLKVSVAFGGFTPVGAYIIHENPKNCKENALIAMGGPLFGGLLGLIYYIVYYVTGNNTFLVLTFTSIILNLGNLIPVSPLDGGQIAEAISPTLCYIGFPVLIYLFILLNSLKSKILLLFIIVAGIYQTYYFTMKYKTDPYYKLDKPSKIKFIFIYSILVLSLTISAIYLYNSFDFKDIFHSIARFK
  protein production: failed

## MEKFTVSKRHWLLLWGLQLGLAGGAAPVFSQAVLPYTPNLDQQQLEDQGLALTEDVVQLVRFQQYDLAFPRAKLATQLAPEQFQTWFILGTLYLQQEEVEPGITVLKKAEALAPEEAGIKFTLGNAYFQKGQYDQAVEVLLAGLAQRPDTPAALFDLGNAYLKLVKYPDAVTAYQKALKAEEQFWPALNNIGLIEYEQGKIDTALKRWQEVIKIDSEQPEPQLAIAVALYKQGKTEEGLRKAQDALNLDSRYGEIDFLVKNLWGEQLIADTKALFATPTMVEVLRTLPPPSDDL
  protein production: failed

## MEKIIVVKYRDVKLKSPILIGGLPGIGNVGKIAADYIVEKLNMVKIYDIFSEYLPPQVFINDDSEIHLVRNSIYYKKMRGKHDLLVLGGDFQGTTQEAQYELSYKMLELAKDMNVSEVYTLGGYSVGKIVERPRVLGAVTDKKLIPELEKNGVIFPKGEPGGGIVGSAGLILGLGMEIFKINGACLMGETSGYFADPKSAMEVLNVLQKQIGIKIDMSDIETRSKQIEQITGKMQEEFQNKQGKEDLGYFG
  protein production: failed

## MEKKANHGDDVQESVPIIHSQVVKIKREFEKIQHPSLKQPEMPLVFREIMGPRRSRSPLGLGERERSIPVGN
  protein production: failed

## MEKKKVTIPQVCHGHSRPVVDLFYSPITPDGFFLISASKDSHPMLRNGETGDWIGTFEGHKGAVWSSCLDNNALRAASASADFSAKLWDALTGDVLHSFEHKHIVRACAFSEDTKSLLTGGFEKILRVFDMNRLDAPPTEVDKSPGSIRTLTWLHSDQTILSSCTDIGGVRLWDVRSGKIVQTLETKSPVTSAEVSQDGRYITTADGSTVKFWDANHFGLVKSYDMPCNIESASLEPKSGEKFVAGGEDMWVRVFDFYTGEEIGCNKGHHGPVHCVRFTPTGLSYASGSEDGTIRIWQTTPANPEENETSSRRVKHSVDEVSKKIEGFHINKEGKTAEKPSDT
  protein production: failed

## MEKKLAPQFDNFYQSCRRYFQKLSRNKNFRSLKVYLLILTIVMVVIINPLSSNISGIVNILPTTTEKITHKSSAQQTDKQSHKTSNKAAYKTSWIGNTFGGKKWVQIQMEGIYVTPNGTVYVNSHWDEAGREVGIYKDGDVIGKADDLHGWGRLGGKAITANQKYLYVAMRQSHEGKPEDDYPPKGTTWYNVRRYDLSGKPAPFAGGRGWDKSMLIVNSKNDVTGLATKDKELYVSDPANDRLRVYNTDTMQELRSFSVPNPGAIAVDRQNNLWVVQKKKIVRYSPQGKQLAQQITDVANPSAIAFDPQGRLLVADNGKRQQVLIYNIANKPKQVGTLGDKGGIYGGTSGEVKDGKLYGITGVGTDKSGNIYVSNHGFNSTGADLRKFSSSGKLQWRLLGLQFIDNADADPDSDGRDVFTKNEHFVMDYSKNNGKEWTYKGYTLDKFRYPDDGRLHTTPTSAFVRRLGGKRLLYLSSEMMAERLLIYRFDGEIAVPCGIFGKNHLSWPPNQPKDGSWLWRDVNGDGSIQNNEYKTLGEEDGSVWGWEIDSKGDIWQAAEAGYIKHYPYQKLDNHGCPIYGQAVGGRIPMPAPFKTLTRIKYFPKQDVMYLGGYTNEHPNLDGDWGLVGTEIVRYDNWSKKRNLRWRIVLPYNHQTDPKLHIKSIDVAGDRVFAVASKKAEVYVYKATTGEALQMLTPGAEVGGESGWIDIPYGIRAFRRANGEYLVFVEENAKGKVLMYRLPG
  protein production: failed

## MEKKLTVNVSDTERIASVLAGSYFMYRSLKRQPKNYAAIASAGLLLFRGVTGHCPGYSAAGKKTLPAPVHNIDIETSVIVNRPVDTVYSFWRRLENLPLFMTHLKSVKQKDHNKSDWEAYLPGGIGSIHWEAKIVKDKPGKVIAWSSLENSTIHNAGKVMFEDIGELGTVINVVISYQAPLGVAGEKVLALLTPTFEKMIRKDIVNFKQYIETGKLPTDKEYAENGKSQFE
  protein production: failed

## MEKLENFWTRDELNTFFDYVTPERDVEQFTMFRVLAYSGIRKGELLALTWKDINFEDNTLRVNKTLTQGLGGKLIVQPPKSRAGRRTIDLDDSTMRYLRQWKGVQRETFLGMGFNTNNVDQLVFASNRNHFRSMNTPTKWLNKAIKATGLKHISIHGFRHTHASLLYQSGVGLKETQQRLGHSRADSSVTLDVYTHTTEQQNVAALQRFENYVEAKLEHHHHHH
  protein production: failed

## MEKPDIQRLTNFLIVYTKTLLGAGTYTARVAKCVGRIAEVYGYEININFFFHHITLNVVDMDDNSIQRTYVIPNHHAHVNFKLIFDLSALSWAIYDHKYDLEKAKVVFEQISQQKKHSYLLNLLFVSMANSAFCRLFGGDFGAGNLVFFATFVGLLLRYILTKAKIDLRIQYILCSFISSWFVFFGLDMGYTNTSDVALGSSILYLIPGVFFINSVIDILKDHILMGLSRIISVAILICCIALGIYMTLSISDFGILR
  protein production: failed

## MEKQKEVQKEYEEYQYMLDTETWKKELSQFKLSSSEKISKNPKVSIIIANYNNAPYLKKMMDSLVQQTIGIEQLQVMFIDDCSTDHSLKVIEPYLERYPNIEIYQLLENTGGAHGPRNVGIVNARGEYSVFLDADDWYDLNALKYLSDLLDDSHDDFAVSGLIQSTDGHLMLKSKPYYVDGSFKNRSIQELPAEFYGWLGPQAIMLRTSLIHNNNLHFVNQRVADDVLFFYEAMRFSKTITQGERLTTYLNRDADNESLSKSINRTFMLSWLRALSYINQQFPDDLSKERMLARRLEWLIYDFCIRRNTGYPFSKRRLQDFKVQMDQYLGELNFDPSPYFRSDVRQIIWTFLQTNDIDGLYWFIQCQSIRWVLVNRFGYVSKTERSYYYPRLLKRFPAVRMNAYAEATQREGNTLSLNVYTHQKITGFEIKELKNPFETRQRLAFKKISETSYQVELPEKFSNKESRFTIVFDNYLEIGVKDFSKFFALEHHHHHH
  protein production: failed

## MEKREEAGEYHSKDFEWEFLKNIVENDPSLSHHLHHHHQNLSKYLPDSQPWQDFHSRHSSGKFFKERRYLLKEFPELVSCGENSKLLEIGCGNGSTVLPILRGSKNITVYACDCSSDALVRTKENIDRAISSVDNFHSFCCDFSTSEFPDWVACDRCRDKFMLNHSGGSESKHCIGGVDFVTLIFTLSAVPKERMPRAIKECFAVLKPGGLLLFRDYGLYDMTMLRFEPEKRVGFREYVRSDGTLSYFFCLDTARKLFTDAGFIEVELEYCCVKAVNRRKGKDMYRVWVHGKFQKPFSN
  protein production: failed

## MEKRQFMKMKEKLKRACFEFAVSNRYLYNLAKRILDSSPKLQKIKEFLIPKEFLIPAANLSNVFEPETSFQNSGRFFKKIKTCFNGGLPPENLDQDLAIINQRWNVNNEGYQIFSHRKILGPFLVRGRRLVHGEVRRYVDPIFHLQREFNASVVRILNRTTEDLRVLSSKNDAIEGKLNTVEEKISGTVRKDEFKEFKDKIMINHDKLQTDFYELKNSLTKNLEELSSTVESIKAKIDTAEEKISGTDIHTSDYYFLFEEKFRGSRELVKARLRRYIPYFKGCRRVLDIGCGRGEFLELCKEEGIESIGVDINEDMIKFCEGKFNVVKSDAIEYLKSLPDKYLDGVMISHFVEHLDPERLFELLSLCYSKMKYSSYIVIESPNPTSLYSLINFYIDPTHKKPVHPETLKFILEYLGFRDVKIEFFEECEELTKLAKIDSNTVSEEVIRVINENIEKLNRILFGPQDYAIIAKK
  protein production: failed

## MEKSKKLPFEVDRRSVYKCVQCGTCRSVCPVFDVVGWESANTRGRMLIIKSLIEGRPPSEDVLSSLASCTTCGICAAKCPAGANPPEVVEAARAQLVKCGVTTDAQLEHHHHHH
  protein production: failed

## MEKSSFAAANMTIMSEPTTPTSQAHDSGASANVIATVETEIRQTARFPTRWTAISSALVVLLCVLALILVPIPFVARSPGQTVNLLSTNERGKPMIQVDGLTTRHGEGEMRMTTVSITRADSRLSMAEALVAHLRADHDVLQREAIYPPGRSPQQVDADESYMMDTSERDAAVAALRAAGQPVTEMPMVSAVSAAGPAHGKLAPGDLIEKVDGKPMASVLDVGKAVRKHTVGDTVVFVVLRNSSVKTIAVTTVSSVSDRRAPAVGVTIDTGYRYTPTITYNIPGDIVGPSAGLAMALSIYQMVAPNDLIGSLRIAGTGGISPDGNVVAIGGIQEKIAGAERDGAKIFLVPAGNCRDISGVETSMRLVKVSSLKDAIAAIQKIRAGGTGIPHC
  protein production: failed

## MEKVTFVRIADLENHNNDGGFWTVIDGKVYDIKDFQTQSLTENSILAQFAGEDPVVALEAALQFEDTRESMHAFCVGQYLEPDQEGVTIP
  protein production: not failed

## MEKYEELFARIKEKAKLIDEKIFELIPEKDPRVLYEAARHYPLAGGKRVRPFVVLTSTEAVGGDPLRAIYPAVAIELIHNYSLVHDDIMDMDETRRGKPTVHRIWGVNMAILAGDLLFSKAFEAVARAEIPPEKKARVLEVIVKASNELCEGQARDLEFEKKSTVTIEEYMEMISGKTGALFEASAKVGGIIGTDNEEYIKALSSWGRNVGIAFQIWDDVLDLIADEKKLGKPVGSDIRKGKKTLIVAHFFENADEKDKQRFLKIFGKYAGDVKGRGIIEEDIKSDVMEAIDLLKKYGSIDYAAEIAKDMIKKANEALRILPKSKARMDLELLAKFIVEREY
  protein production: not failed

## MEKYIFWVTAIFQIGVFALMLYYLFIALFGFYKKKDTKTFEPQKKFAMLVAAHNEEVVIENLVESLKHLDYPKELYDIFVIADNCTDNTAKIARAAGANVFERFNKEKRGKGFALEWMFDKIFKMDTHYDGIAVFDADNLVDKNFLKEMNNKMCEGFKVVQGYIDSKNPQDSWITESYAIAFTSANRMLQLAKSNIGLSAQIGGTGFVIDTATLKKLGWGATCLTEDLEFSCKLILNGEKVGWAHDAIIYDEKPLTLKASWNQRKRWMQGFADVATRYGMKLLKKSIKDRSLVAFDCTLYVMQPFVTLATGLAGLLTFVQIRAVDGLGIFVISYLFNATVWQLFCVFQFLLTPFALLFDKKMSGKLFVVLGLYACNVFIQPYLINQLGILDNIMLLTLFNVAYIGIFLIGTLLFLGKRNFQIFYRYLIYPLYILTWIPITIQGIIDKDKKEWSHTKHVRQIGIYEV
  protein production: failed

## MELDGKAPSHRNLNVQTWSTAEGAKVLFVEARELPMFDLRLIFAAGSSQDGNAPGVALLTNAMLNEGVAGKDVGAIAQGFEGLGADFGNGAYKDMAVASLRSLSAVDKREPALKLFAEVVGKPTFPADSLARIKNQMLAGFEYQKQNPGKLASLELMKRLYGTHPYAHASDGDAKSIPPITLAQLKAFHAKAYAAGNVVIALVGDLSRSDAEAIAAQVSAALPKGPALAKIEQPAEPKASIGHIEFPSSQTSLMLAQLGIDRDDPDYAAVSLGNQILGGGGFGTRLMSEVREKRGLTYGVYSGFTPMQARGPFMINLQTRAEMSEGTLKLVQDVFAEYLKNGPTQKELDDAKRELAGSFPLSTASNADIVGQLGAMGFYNLPLSYLEDFMRQSQELTVEQVKAAMNKHLNVDKMVIVSAGPTVAQKPLEHHHHHH
  protein production: not failed

## MELISIIVPVYNGEIYIGRCLDSILEQTYQNLEIIIIDDGSSDRTGDICEKYFLEDRRIKYFYQENRGQSVARNNGVLRCTGDWIAFLDSDDVYLPYSIEVMYNIQKATNADIVLTSIGNFNNTYNTSINSQYLKEIKLYTLEVALEEMYYGKTYGVSPLAKLYPRSNLLSNPYPEGKIHEDMDTTFKLISCASKIAVCDIVTAVVYFSDNSTTRTKFNERMLYFFEAIQNNIVFINLNFPHNTSLISAVIYNEVFGGIDICGKMIDFKLYDTVDYYRKKYRKYFKTILFNNRISVKEKVKYILFISSIRYFTIVRKIYNLRLSRNGLEHHHHHH
  protein production: failed

## MELKDYYAIMGVKPTDDLKTIKTAYRRLARKYHPDVSKEPDAEARFKEVAEAWEVLSDEQRRAEYDQMWQHRNDPQFNRQFHHGDGQSFNAEDFDDIFSSIFGQHARQSRQRPATRGHDIEIEVAVFLEETLTEHKRTISYNLPVYNAFGMIEQEIPKTLNVKIPAGVGNGQRIRLKGQGTPGENGGPNGDLWLVIHIAPHPLFDIVGQDLEIVVPVSPWEAALGAKVTVPTLKESILLTIPPGSQAGQRLRVKGKGLVSKKQTGDLYAVLKIVMPPKPDENTAALWQQLADAQSSFDPRKDWGKA
  protein production: failed
